Data from patent US20110300138A1 (published 2011).

Assays:
Assay in all cases: cell-based or functional assay
[1] = biological target: human TSH receptor (TSHR), wild type, expressed in CHO cells (human) (UniProt P16473)
[2] = biological target: human TSH receptor (full length, wild type) expressed in CHO cells (human) (UniProt P16473)
[3] = biological target: human TSH receptor (full length, wild type) expressed on CHO cells (human) (UniProt P16473)
[4] = biological target: human TSH receptor (wild type), expressed on transfected CHO cells (human) (UniProt P16473)

B1: 5C9 IgG (antibody, from another filing, V domains shown)
VH: EVQLVESGGGLIQPGGSLRLSCAASGFTVSSNYMSWVRQAPGKGLEWVSVTYSGGSTSYADSVKGRFTISRDNSKNTLYLQMNSLRAEDTAVYYCARGGRYCSSISCYARSGCDYWGQGTLVTVSS
VL: AIQMTQSPSSLSASVGDRVTITCRASQSISNYLNWYQQKPGKAPKLLIYAASSLQSGVPSRFSGSGSGTDFTLTISSLQPEDFATYYCQQSYSSPSTTFGQGTKLEIK
% Inhibition of constitutive activity; 0.001 µg/mL 5C9 IgG [1]: 0%
% Inhibition of constitutive activity; 0.01 µg/mL 5C9 IgG [1]: 1%
% Inhibition of constitutive activity; 0.1 µg/mL 5C9 IgG [1]: 13%
% Inhibition of constitutive activity; 0.3 µg/mL 5C9 IgG [1]: 50%
% Inhibition of constitutive activity; 1 µg/mL 5C9 IgG [1]: 61%
% Inhibition of constitutive activity; 3 µg/mL 5C9 IgG [1]: 63%
% Inhibition of constitutive activity; 10 µg/mL 5C9 IgG [1]: 56%
% Inhibition of constitutive activity; 100 µg/mL 5C9 IgG [1]: 52%
Cyclic AMP concentration (constitutive activity); 0.001 µg/mL 5C9 IgG [1]: 19.1 pmol/mL
Cyclic AMP concentration (constitutive activity); 0.01 µg/mL 5C9 IgG [1]: 18.6 pmol/mL
Cyclic AMP concentration (constitutive activity); 0.1 µg/mL 5C9 IgG [1]: 16.3 pmol/mL
Cyclic AMP concentration (constitutive activity); 0.3 µg/mL 5C9 IgG [1]: 9.3 pmol/mL
Cyclic AMP concentration (constitutive activity); 1 µg/mL 5C9 IgG [1]: 7.4 pmol/mL
Cyclic AMP concentration (constitutive activity); 3 µg/mL 5C9 IgG [1]: 6.9 pmol/mL
Cyclic AMP concentration (constitutive activity); 10 µg/mL 5C9 IgG [1]: 8.3 pmol/mL
Cyclic AMP concentration (constitutive activity); 100 µg/mL 5C9 IgG [1]: 9 pmol/mL
% Inhibition; T1 serum + 100 µg/mL 5C9 IgG [2]: 98.7%
% Inhibition; T2 serum + 100 µg/mL 5C9 IgG [2]: 98.2%
% Inhibition; T3 serum + 100 µg/mL 5C9 IgG [2]: 97.8%
Cyclic AMP concentration; 100 µg/mL 5C9 IgG alone [2]: 1 pmol/mL
Cyclic AMP concentration; HBD + 100 µg/mL 5C9 IgG [2]: 0.9 pmol/mL
Cyclic AMP concentration; T1 serum + 100 µg/mL 5C9 IgG [2]: 1.3 pmol/mL
Cyclic AMP concentration; T2 serum + 100 µg/mL 5C9 IgG [2]: 1.1 pmol/mL
Cyclic AMP concentration; T3 serum + 100 µg/mL 5C9 IgG [2]: 1.4 pmol/mL
% Inhibition of M22 IgG (3 ng/mL) stimulation; 0.001 µg/ml 5C9 IgG [3]: 0%
% Inhibition of M22 IgG (3 ng/mL) stimulation; 0.01 µg/ml 5C9 IgG [3]: 0%
% Inhibition of M22 IgG (3 ng/mL) stimulation; 0.1 µg/ml 5C9 IgG [3]: 91.2%
% Inhibition of M22 IgG (3 ng/mL) stimulation; 0.5 µg/ml 5C9 IgG [3]: 97%
% Inhibition of M22 IgG (3 ng/mL) stimulation; 1 µg/ml 5C9 IgG [3]: 97.6%
% Inhibition of M22 IgG (3 ng/mL) stimulation; 5 µg/ml 5C9 IgG [3]: 99.4%
% Inhibition of M22 IgG (3 ng/mL) stimulation; 10 µg/ml 5C9 IgG [3]: 99.1%
% Inhibition of M22 IgG (3 ng/mL) stimulation; 50 µg/ml 5C9 IgG [3]: 99.1%
% Inhibition of M22 IgG (3 ng/mL) stimulation; 100 µg/ml 5C9 IgG [3]: 98.8%
Cyclic AMP concentration; 3 ng/mL M22 IgG + 0.001 µg/ml 5C9 IgG [3]: 39.3 pmol/mL
Cyclic AMP concentration; 3 ng/mL M22 IgG + 0.01 µg/ml 5C9 IgG [3]: 42.3 pmol/mL
Cyclic AMP concentration; 3 ng/mL M22 IgG + 0.1 µg/ml 5C9 IgG [3]: 2.9 pmol/mL
Cyclic AMP concentration; 3 ng/mL M22 IgG + 0.5 µg/ml 5C9 IgG [3]: 1 pmol/mL
Cyclic AMP concentration; 3 ng/mL M22 IgG + 1 µg/ml 5C9 IgG [3]: 0.8 pmol/mL
Cyclic AMP concentration; 3 ng/mL M22 IgG + 5 µg/ml 5C9 IgG [3]: 0.2 pmol/mL
Cyclic AMP concentration; 3 ng/mL M22 IgG + 10 µg/ml 5C9 IgG [3]: 0.3 pmol/mL
Cyclic AMP concentration; 3 ng/mL M22 IgG + 50 µg/ml 5C9 IgG [3]: 0.3 pmol/mL
Cyclic AMP concentration; 3 ng/mL M22 IgG + 100 µg/ml 5C9 IgG [3]: 0.4 pmol/mL
Cyclic AMP concentration; 5C9 IgG 100 µg/mL alone [3]: 0.5 pmol/mL
% Inhibition (constitutive activity); 0.1 µg/mL 5C9 IgG [4]: 0%
% Inhibition (constitutive activity); 0.2 µg/mL 5C9 IgG [4]: 0%
% Inhibition (constitutive activity); 1 µg/mL 5C9 IgG [4]: 45.9%
% Inhibition (constitutive activity); 2 µg/mL 5C9 IgG [4]: 45.3%
% Inhibition; 5C9 IgG 0.01 µg/mL + T11 [4]: 4.3%
% Inhibition; 5C9 IgG 0.1 µg/mL + T11 [4]: 19.8%
% Inhibition; 5C9 IgG 1 µg/mL + T11 [4]: 23%
% Inhibition; 5C9 IgG 10 µg/mL + T11 [4]: 13.9%
% Inhibition; 5C9 IgG 100 µg/mL + T11 [4]: 11.1%
% Inhibition; pTSH 3 ng/mL + 0.001 µg/mL 5C9 [4]: 0.2%
% Inhibition; pTSH 3 ng/mL + 0.01 µg/mL 5C9 [4]: 0%
% Inhibition; pTSH 3 ng/mL + 0.1 µg/mL 5C9 [4]: 78.7%
% Inhibition; pTSH 3 ng/mL + 1 µg/mL 5C9 [4]: 93.5%
% Inhibition; pTSH 3 ng/mL + 10 µg/mL 5C9 [4]: 98%
% Inhibition; pTSH 3 ng/mL + 100 µg/mL 5C9 [4]: 99.2%
Cyclic AMP concentration; 100 µg/mL 5C9 alone [4]: 0.2 pmol/mL
Cyclic AMP concentration; 5C9 IgG 0.01 µg/mL + T11 [4]: 24.1 pmol/mL
Cyclic AMP concentration; 5C9 IgG 0.1 µg/mL + T11 [4]: 20.2 pmol/mL
Cyclic AMP concentration; 5C9 IgG 1 µg/mL + T11 [4]: 19.4 pmol/mL
Cyclic AMP concentration; 5C9 IgG 10 µg/mL + T11 [4]: 21.7 pmol/mL
Cyclic AMP concentration; 5C9 IgG 100 µg/mL + T11 [4]: 22.4 pmol/mL
Cyclic AMP concentration; 5C9 IgG 100 µg/mL alone [4]: 0.9 pmol/mL
